From the supplement of paper PMC10201428
± gives the standard deviation of the averaged measurements.

B1: library; a variant is named by its letters at N, in order (parent)
chain: AATGTTGTTGATGCAACCATAAAGTGATATTTAATAATTATTTATAATCAGCAACTTAACCACAAAACAACCATATATTGATATNTCACAAAACAACCATAANTTGATATTTTTGTGAATCGAGTATTTCAGCAAAACTACTGCAGTAAGAA

Columns and labels:
[1] = variants of: B1; assay: relative integration efficiency (T-LR orientation) vs wild-type transposon end (log2 (normalized fold change)); transposon end mutated: left end; higher = more efficient transposition; conditions: with VchCAST RNA-guided transposition machinery (E. coli BL21(DE3) host, lacZ target)
Procedure, shortened: (§1)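 A T7-driven effector plasmid encoding a CRISPR array, tniQ-cas8-cas7-cas6 and tnsA-tnsB-tnsC was co-transformed into E. coli BL21(DE3) together with a pUC57 mini-transposon donor holding barcoded pools of 1549 left-end or 1849 right-end variants. Transformants were plated with 0.1 mM IPTG at 37°C for 18 h. Illumina sequencing of PCR-amplified input plasmids and genomic integration junctions gave barcode abundances, and relative integration efficiency is their output/input fold change, normalised to reference barcodes and log-transformed.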

[2] = variants of: B1; assay: relative integration efficiency (T-RL orientation) vs wild-type transposon end (log2 (normalized fold change)); transposon end mutated: left end; higher = more efficient transposition; conditions: with VchCAST RNA-guided transposition machinery (E. coli BL21(DE3) host, lacZ target)
Procedure, shortened: as §1

Variant	relative integration efficiency (log2) [1]	relative integration efficiency (log2) [2]
CG T116A	0.317 ± 0.21	0.0633 ± 0.024
CG T116C	0.235 ± 0.36	-0.0857 ± 0.085
CG T116G	0.159 ± 0.61	0.0899 ± 0.05
CG T114G G115T T116G G117T	-0.295 ± 0.33	-0.309 ± 0.015
CG T105G G106T A107C T108G	-2.48 ± 1.8	-2 ± 0.7
CG T114A G115C	-0.272 ± 0.35	-0.342 ± 0.024
TG T76A T78G C87A	0.336 ± 0.26	0.505 ± 0.035
CG T105A G106C A107T T108A	-1.32 ± 0.25	-1.6 ± 0.76
CG T112G T113G	-0.314 ± 0.34	-0.443 ± 0.12
CG T112A T113A T114A G115C	-0.584 ± 1	0.0734 ± 0.12
CG A19C A73C A99C	–	-6.27 ± 1.8
CG T74G A75C T76G A77C	-2.54 ± 1.3	-1.95 ± 0.99
CG T42A A44T C49A G51T C52T C55T A59T C60A C61T C63T A64T A65T	–	-2.87 ± 0.52
CT A22C A23C G24T T76G A77C T78G A102C T104G	-4.26 ± 1.6	-3.88 ± 1.4
CG T57A	-0.137 ± 0.84	0.139 ± 0.15
CG T57C	-0.422 ± 0.61	-0.546 ± 0.31
CG T57G	-1.94 ± 0.91	-1.33 ± 0.56
CT A102C T104G T105G	-1.62 ± 0.69	-1.98 ± 0.87
CG T111G	0.0369 ± 0.43	-0.195 ± 0.25
CG T111C	-0.338 ± 0.58	-0.142 ± 0.1
CG T111A	-0.0724 ± 0.42	-0.134 ± 0.076
AG T82G A83C T84G	-1.31 ± 0.38	-1.7 ± 0.88
CG T76C	-1.37 ± 0.51	-1.06 ± 0.46
CG T76A	0.179 ± 0.069	0.0494 ± 0.062
CG T76G	-0.699 ± 0.91	-0.903 ± 0.5

Variant	relative integration efficiency (log2) [1]	relative integration efficiency (log2) [2]
CT A102C	-1.29 ± 0.9	-0.973 ± 0.41
AG T86G	0.305 ± 0.13	-0.271 ± 0.068
GG T84A	-0.365 ± 0.032	-0.231 ± 0.12
CG T110G T111G T112G T113G	-1.8 ± 1.2	-1.4 ± 0.63
GG T86A	0.153 ± 0.2	-0.397 ± 0.17
CG T113A T114A G115C T116A	-0.0852 ± 0.079	0.0572 ± 0.12
CG T74A A75T T76A A77T	-0.829 ± 0.96	-0.759 ± 0.32
GG T86A C87G A88T	0.143 ± 0.77	-0.152 ± 0.19
CG T110A T111A	-0.344 ± 0.074	-0.513 ± 0.22
CG T6G G7T	–	-9.04 ± 0.91
CG T8G T9G	–	-6.84 ± 0.88
CG T111A T112A	-0.101 ± 0.79	-0.479 ± 0.31
CG T113G T114G G115T T116G	-0.271 ± 0.14	-0.144 ± 0.053
CG T108C	-0.173 ± 0.39	-0.187 ± 0.35
CG T108A	-1.1 ± 0.37	-0.257 ± 0.48
CG T108G	-0.924 ± 0.023	-0.684 ± 0.41
CT A101C A102C T104G	-2.08 ± 1.2	-1.96 ± 0.64
CG G7T T8G T9G G10T	–	-7.84 ± 0.54
CT T100G A101C A102C	-1.43 ± 0.25	-2.43 ± 0.88
CG T78A T79A G80C A81T	-1.07 ± 0.89	-1.38 ± 0.59
CG T116A G117C	0.431 ± 0.71	0.161 ± 0.0064
CG T105G G106T	-0.649 ± 0.86	-1.2 ± 0.72
CG T112G T113G T114G G115T	-0.51 ± 0.098	-0.359 ± 0.072
CG T76G A77C	-0.497 ± 0.94	-0.785 ± 0.46
CG T105C	-0.552 ± 0.81	-0.583 ± 0.2

Variant	relative integration efficiency (log2) [1]	relative integration efficiency (log2) [2]
CG T105A	-1.22 ± 0.29	-0.835 ± 0.58
CG T105G	-0.747 ± 0.68	-1.17 ± 0.51
CG T110G	-0.561 ± 0.13	-0.516 ± 0.25
CG T110A	0.258 ± 0.5	-0.016 ± 0.099
CG T110C	-0.691 ± 0.63	-0.405 ± 0.13
CG T108G A109C	-0.995 ± 1	-1.16 ± 0.59
CG T86A C87G	0.622 ± 0.21	0.28 ± 0.099
TG T76A T78A T84A C87A	0.281 ± 0.38	-0.028 ± 0.21
CG T116G G117T A118C A119C	-0.21 ± 0.42	0.0794 ± 0.11
CG T114G G115T	0.781 ± 0.54	-0.471 ± 0.32
CG T114A	-0.000535 ± 0.15	-0.291 ± 0.097
CG T114C	-0.293 ± 0.5	-0.448 ± 0.095
CG T114G	-0.0542 ± 0.0021	-0.0633 ± 0.064
CG T112A T113A	-0.503 ± 0.53	-0.318 ± 0.2
CG T78A T79A	-0.257 ± 0.57	-0.058 ± 0.35
CG T111G T112G	-0.977 ± 0.75	-0.622 ± 0.16
CG T84C	-0.172 ± 0.0094	-0.158 ± 0.056
CG T84G	-0.943 ± 0.55	-0.591 ± 0.3
CG T84A	-0.0315 ± 0.47	-0.0633 ± 0.033
CG T57A A58T	-3.38 ± 2.1	-0.792 ± 0.44
CG G4C T5A T6A G7C	–	-7.62 ± 0.39
CG T56C	-0.129 ± 0.16	-0.2 ± 0.061
CG T56G	-0.0431 ± 0.26	-0.112 ± 0.12
CG T100A A101T	-0.623 ± 0.79	-0.364 ± 0.49
CG T79G	-0.323 ± 0.18	-0.702 ± 0.47

Variant	relative integration efficiency (log2) [1]	relative integration efficiency (log2) [2]
CG T79C	-0.488 ± 0.74	-0.605 ± 0.26
CG T79A	-0.546 ± 0.48	-0.596 ± 0.38
CG T110A T111A T112A T113A	-0.328 ± 0.56	-0.587 ± 0.42
CG T114G G115T T116G G117T A118C A119C T120G C121A G122T A123C G124T T125G	0.318 ± 0.049	0.295 ± 0.074
CG T74G A75C	-2.15 ± 0.86	-2.21 ± 0.94
CG T48A C49T A50T C52T A53G C55G T56C T57G A58G C60T C61A A66T A67T	–	-4.31 ± 0.86
CG T78G T79G	0.377 ± 0.26	0.387 ± 0.84
CG T38C A40G T42A A44T A47T T48A C49T G51C C52A A53G A54T C55T T56G	–	-5.99 ± 0.93
CG T86G C87A A88C C89A	-0.0346 ± 0.016	0.0789 ± 0.1
CG T56A T57A A58T A59T	-1.3 ± 0.89	-1.52 ± 0.76
CG T82G A83C	-1.19 ± 0.87	-1.4 ± 0.66
CG T120G C121A G122T A123C G124T T125G	0.433 ± 0.18	0.166 ± 0.011
CG T79A G80C	-1.35 ± 1.1	-1.89 ± 0.83
CG T6G	–	-7.013 ± 0.063
CG T104A T105A G106C A107T	-1.39 ± 0.94	-2.04 ± 0.73
CG T104A	-0.147 ± 0.15	-0.341 ± 0.23
CG T104G	-0.2 ± 0.48	-0.0872 ± 0.27
CG T104C	-0.483 ± 0.33	-0.257 ± 0.037
CG T41A A44G A46G T48G A50G C52A A53T C55A T56C T57A A59T C60T	–	-4.27 ± 0.75
CG T116G G117T	-0.146 ± 0.0071	-0.273 ± 0.045
CG T104G T105G	-1.76 ± 0.75	-1.3 ± 0.71
CG T100A	0.42 ± 1	0.66 ± 0.49
CG T100C	-2.04 ± 0.83	-1.27 ± 0.52
CG T100G	-0.934 ± 1.6	-0.706 ± 0.73
GG T84A T86A C87G	0.0518 ± 0.56	-0.036 ± 0.31

Variant	relative integration efficiency (log2) [1]	relative integration efficiency (log2) [2]
CG T76G A77C T78G T79G	-3.06 ± 1.4	-2.26 ± 0.77
CG T79A G80C A81T T82A	-2.46 ± 2	-1.87 ± 0.95
CG T104G T105G G106T A107C	-2.25 ± 1.7	-2.11 ± 0.66
CG T78C	0.27 ± 0.3	-0.0794 ± 0.1
CG T78G	0.198 ± 0.14	-0.0793 ± 0.054
CG T78A	-0.0877 ± 0.12	0.0885 ± 0.016
AG T84G T86G C87A	0.381 ± 0.25	0.0958 ± 0.22
CG A22C T76G A102C	–	-3.7 ± 1.5
CG T86G C87A	-0.424 ± 0.33	-0.246 ± 0.1
CG T3A G4C T5A T6A	–	-6.84 ± 0.4
AG T86G C87A A88C	0.0813 ± 0.34	-0.158 ± 0.041
CG T82A	–	-0.103 ± 0.77
CG T82G	-0.227 ± 0.47	-0.597 ± 0.43
CG T82C	0.362 ± 0.73	0.536 ± 0.29
CG T45C A46T A47T C49T A50G C52T A53T T56A A59T C60T	–	-6.51 ± 2
CG T108A A109T	-0.852 ± 0.53	-0.848 ± 0.47
CG T5A T6A G7C T8A	–	-7.12 ± 1.1
CG T113A T114A	-0.122 ± 0.087	-0.426 ± 0.25
CG G7C T8A	–	-6.52 ± 0.12
CG T79G G80T	-0.966 ± 0.14	-1.24 ± 0.76
AG T84G	-0.223 ± 1.1	-0.407 ± 0.3
